Consider 3 molecules from publication PMC13086497, “Heat shock factor regulation of antimicrobial peptides expression suggests a conserved defense mechanism induced by febrile temperature in arthropods”.

This series concerns the target T1, LvHSF1 (rLvHSF1-GST) (Litopenaeus vannamei, UniProt X2D760 1-632).
T1 sequence: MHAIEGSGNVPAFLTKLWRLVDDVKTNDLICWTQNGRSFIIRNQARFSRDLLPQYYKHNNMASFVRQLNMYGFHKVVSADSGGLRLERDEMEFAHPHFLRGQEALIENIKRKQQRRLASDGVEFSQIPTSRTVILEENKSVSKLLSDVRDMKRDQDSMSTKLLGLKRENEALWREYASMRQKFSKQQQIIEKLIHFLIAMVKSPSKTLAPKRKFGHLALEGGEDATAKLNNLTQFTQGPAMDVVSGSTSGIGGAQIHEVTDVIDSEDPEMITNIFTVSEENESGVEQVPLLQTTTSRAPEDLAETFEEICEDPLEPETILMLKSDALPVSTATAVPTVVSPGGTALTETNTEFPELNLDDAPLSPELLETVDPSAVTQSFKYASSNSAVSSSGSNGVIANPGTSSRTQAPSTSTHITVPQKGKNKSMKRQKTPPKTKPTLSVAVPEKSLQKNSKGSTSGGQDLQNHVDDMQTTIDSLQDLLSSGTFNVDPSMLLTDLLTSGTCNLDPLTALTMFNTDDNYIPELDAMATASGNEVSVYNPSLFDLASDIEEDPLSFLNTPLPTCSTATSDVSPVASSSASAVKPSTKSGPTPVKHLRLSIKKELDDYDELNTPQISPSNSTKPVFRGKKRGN
Briefly: EMSA; EMSA: 10 ug recombinant protein, 20 fmol biotin probe, LightShift Chemiluminescent EMSA kit, 5% native PAGE; buffer, pH and temperature not stated. The note with it: blunt.

[1] abbreviates: chain copies: 3, label: biotin (labeled probe).

B1: SWD-Probe1 (dsDNA)
DNA 1: TACCACTAGGACTTTCTATAGAACCATCTTTGCTTCACTATAACA
DNA 2: TGTTATAGTGAAGCAAAGATGGTTCTATAGAAAGTCCTAGTGGTA
Turning to B1, the binding result under setting [1] was “binds”.

B2: Mut-SWD-Probe1 (dsDNA)
DNA 1: TACCACTAGGACTTTCCAAACGGCCAGGTTTGCTTCACTATAACA
DNA 2: TGTTATAGTGAAGCAAACCTGGCCGTTTGGAAAGTCCTAGTGGTA
Take B2: the binding result (chain copies: 3, label: biotin) is “no binding”.

B3: SWD-Probe2 (dsDNA)
DNA 1: GTTGGGATTTCCATGATGACTTTTCGAGGAATTAGTGGCTGCGTG
DNA 2: CACGCAGCCACTAATTCCTCGAAAAGTCATCATGGAAATCCCAAC
B3: the binding result under setting [1] was “binds”.
